Data on one molecule can be found in article PMC2413007 (2008).

For the assay, the target named is soluble form of human recombinant TLR2 (extracellular domain Glu 21-Leu 590) (human, UniProt O60603 21-590).

No end group written: not given here. Pam2 = lipid part of the lipopeptide Pam2CSK4

Chain of soluble form of human recombinant TLR2 (extracellular domain Glu 21-Leu 590) (O60603 21-590): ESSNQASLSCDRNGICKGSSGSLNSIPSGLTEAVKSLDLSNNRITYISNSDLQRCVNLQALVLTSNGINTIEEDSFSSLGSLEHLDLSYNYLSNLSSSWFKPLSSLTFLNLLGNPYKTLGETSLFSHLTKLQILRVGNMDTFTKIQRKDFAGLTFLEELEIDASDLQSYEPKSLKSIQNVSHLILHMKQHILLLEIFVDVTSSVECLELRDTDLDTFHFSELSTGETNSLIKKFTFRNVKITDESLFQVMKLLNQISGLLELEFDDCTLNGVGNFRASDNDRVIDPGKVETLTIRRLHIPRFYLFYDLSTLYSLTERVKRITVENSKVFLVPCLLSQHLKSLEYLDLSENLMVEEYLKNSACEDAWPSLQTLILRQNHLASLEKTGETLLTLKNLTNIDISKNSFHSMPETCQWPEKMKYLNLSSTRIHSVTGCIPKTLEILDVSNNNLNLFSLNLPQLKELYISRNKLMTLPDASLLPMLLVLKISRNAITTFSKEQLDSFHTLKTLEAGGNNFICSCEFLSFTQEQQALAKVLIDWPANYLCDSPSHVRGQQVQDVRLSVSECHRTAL

The term Kd denotes the equilibrium constant for the complex coming apart. With C(Pam2)SKKKK [Pam2CSK4 lipopeptide], the Kd was found to be 5.34 µM.
